B1: DYRK1B (parent)
chain: YQGPGTRRLQEVLGVQTGGPGGRR

Variants of: B1
Experiment: protein stability index of a GFP-peptide fusion (GPS, HEK-293T) (PSI 1-6); higher = more stable
Conditions: c terminus: a fixed tail appended
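Further: lentivirally expressed fusions sorted by FACS into six bins by GFP to DsRed ratio, PSI derived from sequencing read proportions per bin multiplied by bin number.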

**Q.** With YQGPGTRRLQEVLGVQTGGPGGDR [R23D] as the variant, how does the protein stability index read?
**A.** 3.8

**Q.** For YQGPGTRRLQEVLGVQTGGPGGWR [R23W], which protein stability index is on record?
**A.** 2.22

**Q.** Which protein stability index does the source give for YQGPGTRRWQEVLGVQTGGPGGRR [L9W] here?
**A.** 1.36

**Q.** Which protein stability index does the source give for YQGPGTRRSQEVLGVQTGGPGGRR [L9S] here?
**A.** 4.65

**Q.** With YQGPGTRRIQEVLGVQTGGPGGRR [L9I] as the variant, how does the protein stability index read?
**A.** 2.97

**Q.** With YQGPGTRRMQEVLGVQTGGPGGRR [L9M] as the variant, how does the protein stability index read?
**A.** 3.71

**Q.** With YQGPGTRRQQEVLGVQTGGPGGRR [L9Q] as the variant, how does the protein stability index read?
**A.** 4.31

**Q.** For YQGPGTRRVQEVLGVQTGGPGGRR [L9V], which protein stability index is on record?
**A.** 3.75

**Q.** With YQGPGTRRFQEVLGVQTGGPGGRR [L9F] as the variant, how does the protein stability index read?
**A.** 2.67

**Q.** For YQGPGTRRLQEVLGVQTGGPGGRP [R24P], which protein stability index is on record?
**A.** 3.45

**Q.** Which protein stability index does the source give for YQGPGTRRLQEVLGVQTGGPGGRH [R24H] here?
**A.** 3.17

**Q.** Which protein stability index does the source give for YQGPGTRRLQEVLGVQTGGPGGRD [R24D] here?
**A.** 3.51

**Q.** Which protein stability index does the source give for YQGPGTRRLQEVLGVQTGGPGGRM [R24M] here?
**A.** 2.5

**Q.** With YQGPGTRVLQEVLGVQTGGPGGRR [R8V] as the variant, how does the protein stability index read?
**A.** 2.66

**Q.** For YQGPGTRLLQEVLGVQTGGPGGRR [R8L], which protein stability index is on record?
**A.** 1.91

**Q.** Which protein stability index does the source give for YQGPGTRGLQEVLGVQTGGPGGRR [R8G] here?
**A.** 3.14

**Q.** With YQGPGTRRLQEVLGDQTGGPGGRR [V15D] as the variant, how does the protein stability index read?
**A.** 3.23

**Q.** Which protein stability index does the source give for YQGPGTRRLQEVLGCQTGGPGGRR [V15C] here?
**A.** 2.82

**Q.** Which protein stability index does the source give for YQGPGTRRLQEVLGQQTGGPGGRR [V15Q] here?
**A.** 4

**Q.** With YQGPGTRRLQEVLGKQTGGPGGRR [V15K] as the variant, how does the protein stability index read?
**A.** 3.01

**Q.** With YQGPGTRRLQEVLGYQTGGPGGRR [V15Y] as the variant, how does the protein stability index read?
**A.** 2.92

**Q.** Which protein stability index does the source give for YQGPGTRRLQEVLGVLTGGPGGRR [Q16L] here?
**A.** 2.96

**Q.** Which protein stability index does the source give for YQGPGTRRLQEVLGVATGGPGGRR [Q16A] here?
**A.** 2.81

**Q.** Which protein stability index does the source give for YQGPGTRRLQEVLGVNTGGPGGRR [Q16N] here?
**A.** 3.32

**Q.** With YQGPGTRRLQEVLGVCTGGPGGRR [Q16C] as the variant, how does the protein stability index read?
**A.** 2.1

**Q.** Which protein stability index does the source give for YQGPGTRRLQEVLGVPTGGPGGRR [Q16P] here?
**A.** 2.77

**Q.** Which protein stability index does the source give for YQGPGTRRLQEVLGVDTGGPGGRR [Q16D] here?
**A.** 4.06

**Q.** With YQGPGTRRLQEVLGVFTGGPGGRR [Q16F] as the variant, how does the protein stability index read?
**A.** 2.01

**Q.** Which protein stability index does the source give for YQGPGTRRLQEVLGVGTGGPGGRR [Q16G] here?
**A.** 3.42

**Q.** For YQGPGTRRLQEVLGVRTGGPGGRR [Q16R], which protein stability index is on record?
**A.** 3.09

**Q.** With YQGPGTRRLQEVLGVTTGGPGGRR [Q16T] as the variant, how does the protein stability index read?
**A.** 2.78

**Q.** Which protein stability index does the source give for YQGPGTRRLQEVLGVSTGGPGGRR [Q16S] here?
**A.** 2.82

**Q.** Which protein stability index does the source give for YQGPGSRRLQEVLGVQTGGPGGRR [T6S] here?
**A.** 2.54

**Q.** For YQGPGRRRLQEVLGVQTGGPGGRR [T6R], which protein stability index is on record?
**A.** 3.51

**Q.** Which protein stability index does the source give for YQGPGARRLQEVLGVQTGGPGGRR [T6A] here?
**A.** 2.71

**Q.** With YQGPGQRRLQEVLGVQTGGPGGRR [T6Q] as the variant, how does the protein stability index read?
**A.** 3.4

**Q.** For YQGPGMRRLQEVLGVQTGGPGGRR [T6M], which protein stability index is on record?
**A.** 3.28

**Q.** With YQGPGERRLQEVLGVQTGGPGGRR [T6E] as the variant, how does the protein stability index read?
**A.** 3.47

**Q.** For YQGPGVRRLQEVLGVQTGGPGGRR [T6V], which protein stability index is on record?
**A.** 3.02

**Q.** Which protein stability index does the source give for YQGPGIRRLQEVLGVQTGGPGGRR [T6I] here?
**A.** 2.87

**Q.** With YQGPGHRRLQEVLGVQTGGPGGRR [T6H] as the variant, how does the protein stability index read?
**A.** 2.67

**Q.** For YQGPGTRRLQEVLGVQTGGPGHRR [G22H], which protein stability index is on record?
**A.** 3.29

**Q.** Which protein stability index does the source give for YQGPGTRRLQEVLGVQTGGPGRRR [G22R] here?
**A.** 2.7

**Q.** Which protein stability index does the source give for YQGPGTRRLQEVLGVQTGGPGWRR [G22W] here?
**A.** 3.01

**Q.** With YQGPGTRRLQEVLGVQTGGPGARR [G22A] as the variant, how does the protein stability index read?
**A.** 3.13

**Q.** Which protein stability index does the source give for YQGPGTRRLQEVLGVQTGGPGQRR [G22Q] here?
**A.** 3.48

**Q.** Which protein stability index does the source give for YQGPGTRRLQEVLGVQTGGPGYRR [G22Y] here?
**A.** 2.63

**Q.** For YQGPGTRRLQEVLGVQTGGPGFRR [G22F], which protein stability index is on record?
**A.** 2.17

**Q.** Which protein stability index does the source give for YQGPGTRRLQEVLGVQTGGPGIRR [G22I] here?
**A.** 3.75

**Q.** With YQGPGTRRLQEVEGVQTGGPGGRR [L13E] as the variant, how does the protein stability index read?
**A.** 4.44

**Q.** For YQGPGTRRLQEVDGVQTGGPGGRR [L13D], which protein stability index is on record?
**A.** 3.93

**Q.** For YQGPGTRRLQEVGGVQTGGPGGRR [L13G], which protein stability index is on record?
**A.** 3.9

**Q.** For YQGPGTRRLQEVCGVQTGGPGGRR [L13C], which protein stability index is on record?
**A.** 3.88

**Q.** With YQGPGTRRLQEVKGVQTGGPGGRR [L13K] as the variant, how does the protein stability index read?
**A.** 3.79

**Q.** With YQGPGTRRLQEVAGVQTGGPGGRR [L13A] as the variant, how does the protein stability index read?
**A.** 3.58

**Q.** For YQGPGTRRLQEVTGVQTGGPGGRR [L13T], which protein stability index is on record?
**A.** 3.97

**Q.** Which protein stability index does the source give for YQGPGTRRLQEVRGVQTGGPGGRR [L13R] here?
**A.** 3.61

**Q.** Which protein stability index does the source give for YQGPGTRRLQEVYGVQTGGPGGRR [L13Y] here?
**A.** 3.63

**Q.** Which protein stability index does the source give for YQGRGTRRLQEVLGVQTGGPGGRR [P4R] here?
**A.** 2.78

**Q.** For YQGFGTRRLQEVLGVQTGGPGGRR [P4F], which protein stability index is on record?
**A.** 1.68

**Q.** Which protein stability index does the source give for YQGWGTRRLQEVLGVQTGGPGGRR [P4W] here?
**A.** 1.76

**Q.** With YQGVGTRRLQEVLGVQTGGPGGRR [P4V] as the variant, how does the protein stability index read?
**A.** 3.14

**Q.** With YQGEGTRRLQEVLGVQTGGPGGRR [P4E] as the variant, how does the protein stability index read?
**A.** 3.3

**Q.** With YQGPGTRRLVEVLGVQTGGPGGRR [Q10V] as the variant, how does the protein stability index read?
**A.** 2.52

**Q.** Which protein stability index does the source give for YQGPGTRRLMEVLGVQTGGPGGRR [Q10M] here?
**A.** 2.82

**Q.** With YQGPGTRRLEEVLGVQTGGPGGRR [Q10E] as the variant, how does the protein stability index read?
**A.** 3.82

**Q.** For YQGPGTRRLYEVLGVQTGGPGGRR [Q10Y], which protein stability index is on record?
**A.** 2.25

**Q.** With YQGPGTRRLGEVLGVQTGGPGGRR [Q10G] as the variant, how does the protein stability index read?
**A.** 1.96

**Q.** Which protein stability index does the source give for YQGPGTRRLAEVLGVQTGGPGGRR [Q10A] here?
**A.** 1.95

**Q.** Which protein stability index does the source give for YQGPGTRRLQEVLGVQTGGPRGRR [G21R] here?
**A.** 3.32

**Q.** With YQGPGTRRLQEVLGVQTGGPCGRR [G21C] as the variant, how does the protein stability index read?
**A.** 2.72

**Q.** With YQGPGTRRLQEVLGVQTGGPEGRR [G21E] as the variant, how does the protein stability index read?
**A.** 3.13

**Q.** With YQGPGTRRLQEVLGVQTGGPNGRR [G21N] as the variant, how does the protein stability index read?
**A.** 3.04

**Q.** For YQGPGTRRLQEVLGVQTGGPWGRR [G21W], which protein stability index is on record?
**A.** 2.17

**Q.** Which protein stability index does the source give for YQGPGTRRLQEVLGVQTGGPSGRR [G21S] here?
**A.** 3.04

**Q.** For YQGPGTRRLQEVLGVQTGGPFGRR [G21F], which protein stability index is on record?
**A.** 2.93

**Q.** With YQGPGTRRLQEVLGVQTGGPQGRR [G21Q] as the variant, how does the protein stability index read?
**A.** 3.4

**Q.** With YQGPGTRRLQEVLGVQTGGPLGRR [G21L] as the variant, how does the protein stability index read?
**A.** 3.18

**Q.** Which protein stability index does the source give for YQGPGTRRLQEVLGVQTGGPMGRR [G21M] here?
**A.** 3.48

**Q.** With YQGPGTRRLQEVLGVQTGGPYGRR [G21Y] as the variant, how does the protein stability index read?
**A.** 2.68

**Q.** With YQGPGTIRLQEVLGVQTGGPGGRR [R7I] as the variant, how does the protein stability index read?
**A.** 3.57

**Q.** Which protein stability index does the source give for YQGPGTHRLQEVLGVQTGGPGGRR [R7H] here?
**A.** 3.42

**Q.** With YQGPGTERLQEVLGVQTGGPGGRR [R7E] as the variant, how does the protein stability index read?
**A.** 4.05

**Q.** For YQGPGTGRLQEVLGVQTGGPGGRR [R7G], which protein stability index is on record?
**A.** 3.37

**Q.** With YQGPGTNRLQEVLGVQTGGPGGRR [R7N] as the variant, how does the protein stability index read?
**A.** 2.65

**Q.** For YQGPGTVRLQEVLGVQTGGPGGRR [R7V], which protein stability index is on record?
**A.** 3.03

**Q.** Which protein stability index does the source give for YQGPGTTRLQEVLGVQTGGPGGRR [R7T] here?
**A.** 3.54

**Q.** Which protein stability index does the source give for AQGPGTRRLQEVLGVQTGGPGGRR [Y1A] here?
**A.** 4.7

**Q.** With PQGPGTRRLQEVLGVQTGGPGGRR [Y1P] as the variant, how does the protein stability index read?
**A.** 5.36

**Q.** Which protein stability index does the source give for EQGPGTRRLQEVLGVQTGGPGGRR [Y1E] here?
**A.** 4.83

**Q.** With IQGPGTRRLQEVLGVQTGGPGGRR [Y1I] as the variant, how does the protein stability index read?
**A.** 4.33

**Q.** Which protein stability index does the source give for RQGPGTRRLQEVLGVQTGGPGGRR [Y1R] here?
**A.** 4.22

**Q.** Which protein stability index does the source give for CQGPGTRRLQEVLGVQTGGPGGRR [Y1C] here?
**A.** 4.48

**Q.** Which protein stability index does the source give for WQGPGTRRLQEVLGVQTGGPGGRR [Y1W] here?
**A.** 3.9
